T1: biotinylated IL-2 receptor beta gamma heterodimer Fc (IL-2RBG; Acro ILG-H5254) (UniProt P14784 27-239; P31785 23-262, biotinylated)
T1 construct: bought heterodimer
T1 sequence (looked up) 1: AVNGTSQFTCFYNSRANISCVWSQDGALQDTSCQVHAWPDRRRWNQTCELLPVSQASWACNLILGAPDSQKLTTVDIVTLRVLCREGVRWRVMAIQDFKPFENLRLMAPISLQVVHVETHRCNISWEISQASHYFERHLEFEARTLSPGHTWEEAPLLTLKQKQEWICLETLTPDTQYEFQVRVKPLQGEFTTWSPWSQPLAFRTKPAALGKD
T1 sequence (looked up) 2: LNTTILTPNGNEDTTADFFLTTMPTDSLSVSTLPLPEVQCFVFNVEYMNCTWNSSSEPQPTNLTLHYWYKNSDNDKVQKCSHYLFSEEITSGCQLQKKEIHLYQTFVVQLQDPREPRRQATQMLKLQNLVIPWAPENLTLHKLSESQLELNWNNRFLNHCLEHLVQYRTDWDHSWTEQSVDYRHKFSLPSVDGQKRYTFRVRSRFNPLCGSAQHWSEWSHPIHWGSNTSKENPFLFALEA


How the values were obtained:
[1] = molecular target: T1, biotinylated IL-2 receptor beta gamma …; test: ELISA, captured complex, biotin-IL-2RBG titrated
IL2 (R&D, 202-IL) = IL2 (R&D, 202-IL) (UniProt P60568 21-153); test: ELISA, scFv on anti-V5
From the text: The scFv DNA sequence for each clone was synthesized as a GBLOCK® (Integrated DNA Technologies, Inc.) with a T7 promoter, a translation initiation site, the coding sequence for the scFv sequence with cMyc and V5 tags, and a T7 terminator sequence. Proteins from each of the GBLOCK® fragments were expressed using a cell-free transcription/translation system (Cosmo Bio USA, Inc., PUREFREX® 2.1, Product #GFK-PF213 with DS Supplement, Prod. #GFK-PF005). […] In these experiments, wells of a 384-well plate were coated with an anti-V5 antibody (Sv5-Pk1, BioRad) at lug/ml overnight at 4 degrees. After washing, wells were blocked with SUPERBLOCK™ (ThermoFisher, 37515) followed by addition of saturating levels of scFvs in SUPERBLOCK™. After washing, antigens were added and plates incubated for one hour. To detect PD1 binding, a biotinylated recombinant PD1 was used (PD1-HisAvi, Acro Biosystems, PD1-H82E4). […] Biotinylated antigens were detected using streptavidin HRP using standard methods. Varying amounts of labelled test antigen were added to show binding and to estimate relative affinities of the different scFvs.

Binder	binding result [1]	binding result (IL2 (R&D, 202-IL))
AF004696 (other, also called AF4696) heavy 1: QVQLVESGGGVVQPGRSLRLDCKASGITFSNSGMHWVRQAPGKGLEWVAVIWYDGSKRYYADSVKGRFTISRDNSKNTLFLQMNSLRAEDTAVYYCATNDDYWGQGTLVTVSSAKTTAPSVYPLAPVCGDTTGSSVTLGCLVKGYFPEPVTLTWNSGSLSSGVHTFPAVLQSDLYTLSSSVTVTSSTWPSQSITCNVAHPASSTKVDKKIEPRGPTIKPCPPCKCPAPNAAGGPSVFIFPPKIKDVLMISLSPIVTCVVVDVSEDDPDVQISWFVNNVEVHTAQTQTHREDYNSTLRVVSALPIQHQDWMSGKEFKCKVNNKDLGAPIERTISKPKGSVRAPQVYVLPPPEEEMTKKQVTLTCMVTDFMPEDIYVEWTNNGKTELNYKNTEPVLDSDGSYFMYSDLRVEKKNWVERNSYSCSVVHEGLHNHHTTESFSRTPGGGGGSGGGGSGGGGSAPTSSSTKKTQLQLEHLLLDLQMILNGINNYKNPKLTDMLTFEFYMPKKATELKHLQCLERELKPLEEVLNLAQSKNFHLRPRDLISNINVIVLELKGSETTFMCEYADETATIVEFLNRWITFCQSIISTLT heavy 2: QVQLVESGGGVVQPGRSLRLDCKASGITFSNSGMHWVRQAPGKGLEWVAVIWYDGSKRYYADSVKGRFTISRDNSKNTLFLQMNSLRAEDTAVYYCATNDDYWGQGTLVTVSSAKTTAPSVYPLAPVCGDTTGSSVTLGCLVKGYFPEPVTLTWNSGSLSSGVHTFPAVLQSDLYTLSSSVTVTSSTWPSQSITCNVAHPASSTKVDKKIEPRGPTIKPCPPCKCPAPNAAGGPSVFIFPPKIKDVLMISLSPIVTCVVVDVSEDDPDVQISWFVNNVEVHTAQTQTHREDYNSTLRVVSALPIQHQDWMSGKEFKCKVNNKDLGAPIERTISKPKGSVRAPQVYVLPPPEKEMTKKQVSLTCLVKDFMPEDIYVEWTNNGKTELNYKNTEPVLKSDGSYFMYSKLTVEKKNWVERNSYSCSVVHEGLHNHHTTKSFSRTPGGGGGSGGGGSGGGGSGGGGSQVQLVQSGAEVKKPGASVKVSCKASGYTFTRYYMHWVRQAPGQGLEWMGIINPRAGYTSYALKFQGRVTMTRDTSTSTVYMELSSLRSEDTAVYYCTSGWDVWGQGTLVTVSSASGGGGSGGGGSGGGGSHASDIQMTQSPSSLSASVGDRVTITCRASQSISTWLAWYQQKPGKAPKLLIYAASSLDSGVPSRFSGSGSGTDFTLTISSLQPEDFATYYCQQSYSFPVTFGQGTKVEIK light: EIVLTQSPATLSLSPGERATLSCRASQSVSSYLAWYQQKPGQAPRLLIYDASNRATGIPARFSGSGSGTDFTLTISSLEPEDFAVYYCQQSSNWPRTFGQGTKVEIKRADAAPTVSIFPPSSEQLTSGGASVVCFLNNFYPKDINVKWKIDGSERQNGVLNSWTDQDSKDSTYSMSSTLTLTKDEYERHNSYTCEATHKTSTSPIVKSFNRNEC	binds	–
AB000694 (anti-PD1 control) scFv (AF005039) (scFv, V domains shown, scFv with cMyc and V5 tags; also called AB000694_nivo) VH: QVQLVESGGGVVQPGRSLRLDCKASGITFSNSGMHWVRQAPGKGLEWVAVIWYDGSKRYYADSVKGRFTISRDNSKNTLFLQMNSLRAEDTAVYYCATNDDYWGQGTLVTVSS VL: EIVLTQSPATLSLSPGERATLSCRASQSVSSYLAWYQQKPGQAPRLLIYDASNRATGIPARFSGSGSGTDFTLTISSLEPEDFAVYYCQQSSNWPRTFGQGTKVEIK	–	no binding
AB000880 (anti-PD1 control) scFv (AF000327) (scFv, also called AB000880_PD1_R04_C10) scFv: MSTSTEQKLISEEDLQVQLVQSGAEVKKPGASVKVSCKASGYTFTTYYMHWVRQAPGQGLEWMGIINPSGGGTLYAQKFQGRVTMTRDTSTSTVYMELSSLRSEDTAVYYCAAGLFIWGQGTTVTVSSASGGGGSGGGGSGGGGSHASDIVMTQSPDSLAVSLGERATINCKASQSLLHSSSNKNYLAWYQQKPGQPPKLLIYWASTRESGVPDRFSGSGSGTDFTLTISSLQAEDVAVYYCQQYYSTPITFGPGTKVDIKGSGLNDIFEAQKIEWHEGKPIPNPLLGLDST	–	no binding
